The values that follow come from publication PMC11813886.

In one test the target is human C3b. Kind of test: ELISA. Conditions: chain shown with the change; human C3b-coated plates; value read at 50 nM protein (highest concentration); parent: est. 0.69; read off a plot.
A further test addresses T1, FHR-B_(Y162H).
T1 chain: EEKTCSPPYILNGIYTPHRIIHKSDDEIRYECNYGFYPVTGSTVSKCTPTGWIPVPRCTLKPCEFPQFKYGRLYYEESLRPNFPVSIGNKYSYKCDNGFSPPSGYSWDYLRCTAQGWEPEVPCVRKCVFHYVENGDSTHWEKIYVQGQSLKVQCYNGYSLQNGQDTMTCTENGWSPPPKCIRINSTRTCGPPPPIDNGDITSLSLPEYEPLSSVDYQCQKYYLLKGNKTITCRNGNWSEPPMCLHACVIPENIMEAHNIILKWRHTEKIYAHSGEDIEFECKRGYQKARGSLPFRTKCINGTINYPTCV
Kind of test: AUC (analytical ultracentrifugation, sedimentation velocity), self-association (dimerization). The note with it: chain shown with the change; PBS pH 7; parent: est. 1.0; read off a plot.

In the next test the target is T2, FHR-B_(T161A,I166V).
T2 chain: T1 chain with T138A, H139Y, I143V
The test is described as above. Conditions: chain shown with the change; PBS pH 7; parent: est. 1.0; read off a plot.

Changes are numbered by the printed parent chain. Names may count otherwise.

Chain of human C3b (chain, as listed by the source, chain 1 of 2): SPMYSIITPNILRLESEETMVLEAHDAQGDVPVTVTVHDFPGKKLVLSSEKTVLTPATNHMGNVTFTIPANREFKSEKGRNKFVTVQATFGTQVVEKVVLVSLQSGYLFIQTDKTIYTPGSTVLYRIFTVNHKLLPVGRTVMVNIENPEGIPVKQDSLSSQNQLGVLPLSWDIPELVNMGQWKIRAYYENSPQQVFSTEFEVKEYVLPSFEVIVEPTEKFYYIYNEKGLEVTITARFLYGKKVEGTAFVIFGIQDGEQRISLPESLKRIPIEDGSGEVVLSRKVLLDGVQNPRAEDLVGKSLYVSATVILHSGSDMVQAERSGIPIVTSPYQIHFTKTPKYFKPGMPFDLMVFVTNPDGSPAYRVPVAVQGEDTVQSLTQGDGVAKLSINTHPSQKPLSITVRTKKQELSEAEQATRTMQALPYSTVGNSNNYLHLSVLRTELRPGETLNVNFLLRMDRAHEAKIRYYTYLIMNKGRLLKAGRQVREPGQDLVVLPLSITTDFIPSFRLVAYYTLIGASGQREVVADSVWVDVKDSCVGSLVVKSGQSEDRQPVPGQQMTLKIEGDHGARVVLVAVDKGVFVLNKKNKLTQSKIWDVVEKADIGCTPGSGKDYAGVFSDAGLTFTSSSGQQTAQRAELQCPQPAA
Chain of human C3b (chain, as listed by the source, chain 2 of 2): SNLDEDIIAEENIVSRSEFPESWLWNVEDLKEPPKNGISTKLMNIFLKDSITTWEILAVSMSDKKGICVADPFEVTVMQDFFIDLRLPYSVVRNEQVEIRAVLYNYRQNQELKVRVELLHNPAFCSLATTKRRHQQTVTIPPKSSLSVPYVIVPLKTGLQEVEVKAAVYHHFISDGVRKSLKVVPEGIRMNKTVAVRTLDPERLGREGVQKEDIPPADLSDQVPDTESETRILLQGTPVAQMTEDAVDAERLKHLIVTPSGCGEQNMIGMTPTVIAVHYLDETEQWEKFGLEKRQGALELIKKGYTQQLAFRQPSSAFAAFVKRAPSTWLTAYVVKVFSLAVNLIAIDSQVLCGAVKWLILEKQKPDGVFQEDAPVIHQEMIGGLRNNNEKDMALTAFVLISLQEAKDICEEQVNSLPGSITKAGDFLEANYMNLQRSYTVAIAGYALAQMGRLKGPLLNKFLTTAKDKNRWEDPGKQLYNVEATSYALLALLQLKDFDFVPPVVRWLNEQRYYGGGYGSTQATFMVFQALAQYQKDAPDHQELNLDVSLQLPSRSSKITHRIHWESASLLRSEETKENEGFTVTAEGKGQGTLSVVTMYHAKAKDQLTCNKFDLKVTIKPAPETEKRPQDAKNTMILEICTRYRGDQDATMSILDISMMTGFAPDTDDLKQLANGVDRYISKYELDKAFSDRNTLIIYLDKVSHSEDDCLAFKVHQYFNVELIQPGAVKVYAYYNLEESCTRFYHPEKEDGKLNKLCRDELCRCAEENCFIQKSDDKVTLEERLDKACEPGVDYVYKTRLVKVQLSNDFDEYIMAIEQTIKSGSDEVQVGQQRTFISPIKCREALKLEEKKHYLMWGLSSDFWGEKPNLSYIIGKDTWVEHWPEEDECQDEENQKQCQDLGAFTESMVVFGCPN

B1: recombinant form of the native mouse FHR-B protein (rFHR-B) Y162H (protein)
chain: T1 chain
Regarding B1, the response with human C3b stood at 0.66 Abs 405nm. In addition, the other: c(S) height of dimer peak (normalised distribution) in the test with FHR-B_(Y162H) is 0.09.

B2: recombinant form of the native mouse FHR-B protein (rFHR-B) T161A; I166V (protein)
chain: T1 chain with T138A, H139Y, I143V
For B2, the response with human C3b was determined as 0.66 Abs 405nm. For the same molecule, in the test with FHR-B_(T161A,I166V), the other: c(S) height of dimer peak (normalised distribution) came to 0.13.
